Each block holds one binder with its values, some of them ahead of it.
What was measured:
[1] = molecular target: T1, human Siglec 7 on cells (human, UniProt Q9Y286 19-467); test: cell-based or functional assay
[2] = molecular target: T2, Siglec 9 on 293T cells (UniProt Q9Y336 18-463, limits assumed); test: flow cytometry on Siglec 9 overexpressing HEK293T cells
T2 construct: whole, on cells
Text: BD LSRII flow cytometer was used for staining of cells. BD FACS Aria cell sorter (BD Biosciences) was used for the sorting of Siglec 7/FSHR stably expressing cells. Anti-human antibodies used were directly fluorochrome conjugated. […] For the non-conjugated primary antibodies, PE-secondary anti-human (H+L) (Invitrogen), PE/AF647—secondary anti-human F(ab′)₂ (Jackson ImmunoResearch Laboratories Inc) and APC—secondary anti-mouse IgG (Poly4053, BioLegend) were used. Live/Dead Violet viability kit (Invitrogen) was used to exclude dead cells from analysis.
Three mAbs targeting Siglec 7 were sequenced and studied in more detail. […] (FIG. 10B). […] Cells were labeled with DAPI (nuclei), GFP (Siglec 7) and Texas Red (Anti-Siglec 7).

[3] = molecular target: T3, recombinant human Siglec-7 protein (human, UniProt Q9Y286 19-353, limits assumed); test: SPR, DB7.2 and recombinant human Siglec-7 protein
[4] = molecular target: T3, recombinant human Siglec-7 protein; test: SPR, titration of anti-Siglec-7 on recombinant human Siglec-7 protein
[5] = molecular target: T1, human Siglec 7 on cells; test: flow cytometry of human NK cells with sera of DMAb-electroporated mice, anti-human IgG

T1 sequence (Q9Y286 19-467): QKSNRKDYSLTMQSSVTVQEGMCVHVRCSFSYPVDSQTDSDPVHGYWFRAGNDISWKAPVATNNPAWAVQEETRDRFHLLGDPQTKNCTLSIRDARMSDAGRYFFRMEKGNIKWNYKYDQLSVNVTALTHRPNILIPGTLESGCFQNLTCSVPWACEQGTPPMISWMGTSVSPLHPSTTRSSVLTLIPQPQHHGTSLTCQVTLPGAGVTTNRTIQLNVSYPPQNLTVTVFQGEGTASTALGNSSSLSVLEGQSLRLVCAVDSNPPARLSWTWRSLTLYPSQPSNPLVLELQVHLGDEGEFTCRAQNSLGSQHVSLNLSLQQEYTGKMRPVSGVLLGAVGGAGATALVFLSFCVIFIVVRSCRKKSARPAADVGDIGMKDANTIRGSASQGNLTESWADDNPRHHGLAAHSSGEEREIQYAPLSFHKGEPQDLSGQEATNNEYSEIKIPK
T2 sequence (Q9Y336 18-463 limits assumed): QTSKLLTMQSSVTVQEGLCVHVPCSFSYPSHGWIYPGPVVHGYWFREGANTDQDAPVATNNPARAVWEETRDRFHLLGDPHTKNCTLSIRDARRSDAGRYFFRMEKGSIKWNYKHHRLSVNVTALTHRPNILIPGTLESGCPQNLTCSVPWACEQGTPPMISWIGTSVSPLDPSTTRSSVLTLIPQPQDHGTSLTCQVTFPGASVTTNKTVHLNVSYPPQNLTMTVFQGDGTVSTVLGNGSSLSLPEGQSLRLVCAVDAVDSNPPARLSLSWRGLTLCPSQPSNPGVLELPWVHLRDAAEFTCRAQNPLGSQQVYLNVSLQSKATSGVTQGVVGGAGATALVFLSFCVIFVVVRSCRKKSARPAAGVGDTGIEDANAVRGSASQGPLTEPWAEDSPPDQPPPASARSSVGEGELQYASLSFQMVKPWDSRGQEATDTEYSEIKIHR
T3 sequence (Q9Y286 19-353 limits assumed): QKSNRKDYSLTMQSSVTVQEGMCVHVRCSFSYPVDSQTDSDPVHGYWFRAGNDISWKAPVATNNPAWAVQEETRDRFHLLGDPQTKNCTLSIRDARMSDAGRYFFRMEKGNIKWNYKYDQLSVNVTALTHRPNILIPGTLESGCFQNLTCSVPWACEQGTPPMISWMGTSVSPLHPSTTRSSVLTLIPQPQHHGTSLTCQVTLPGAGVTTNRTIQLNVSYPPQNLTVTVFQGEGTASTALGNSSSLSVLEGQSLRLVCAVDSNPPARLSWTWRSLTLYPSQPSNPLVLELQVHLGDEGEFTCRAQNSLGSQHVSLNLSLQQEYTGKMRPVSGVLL

binding result [2]: no binding
koff [3]: 3.6e-05 s⁻¹
kon [3]: 830000 M⁻¹ s⁻¹
t1/2 [3]: 320 min
Kd [4]: 0.044 nM
B1: DB-S7-2 anti-Siglec 7 antibody (antibody, V domains shown)
VH: QVQLVESGGGVVQPGRSLRLSCAASGFTFRTDAMHWVRQAPGKGLEWVAVIWYDGSIKYHADSVKGRFTISRDNSKNTLYLEMNSLRAEDTAVYYCARDRSNSLDHWGQGILVSVSS
VL: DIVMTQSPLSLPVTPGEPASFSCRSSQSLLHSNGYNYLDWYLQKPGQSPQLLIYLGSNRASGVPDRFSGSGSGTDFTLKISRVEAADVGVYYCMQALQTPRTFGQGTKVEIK
notes: Raised in H2L2 mice (hybridoma clone in the first screens), then expressed as human IgG1 HC and LC from pVax1 in Expi293F cells or in mice (DMAb); also called DB7.2; DB-S7-2 DMAb
killing of OVISE cells with human PBMCs (cell index vs dose), IC50 [1]: 82.7 nM
killing of PEO4 cells with human PBMCs (xCELLigence), EC50 [1]: 68.9 nM

binding result [5]: binds
binding result [2]: no binding
B2: DB-S7-1 anti-Siglec 7 antibody (antibody, V domains shown)
VH: QVQLVESGGGVVQPGRSLRLSCAASGFTFRTDAMHWVRQAPGKGLEWVAVIWYDGSIKYHADSVKGRFTISRDNSKNTLYLEMNSLRAEDTAVYYCARDRSNSLDHWGQGILVSVSS
VL: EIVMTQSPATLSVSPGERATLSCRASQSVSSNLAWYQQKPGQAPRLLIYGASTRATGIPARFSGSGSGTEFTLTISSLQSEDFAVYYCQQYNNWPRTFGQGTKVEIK
notes: Raised in H2L2 mice (hybridoma clone in the first screens), then expressed as human IgG1 HC and LC from pVax1 in Expi293F cells or in mice (DMAb); also called DB7.1; DB-S7-1 DMAb

B3: DB7.2_TM Mod (antibody, V domains shown)
VH: QVQLVESGGGVVQPGRSLRLSCAASGFTFRTDAMHWVRQAPGKGLEWVAVIWYDGSIKYHADSVKGRFTISRDNSKNTLYLEMNSLRAEDTAVYYCARDRSNSLDHWGQGILVSVSS
VL: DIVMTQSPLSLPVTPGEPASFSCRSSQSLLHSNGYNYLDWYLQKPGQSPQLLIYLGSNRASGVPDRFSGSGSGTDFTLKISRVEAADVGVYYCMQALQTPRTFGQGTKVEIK
killing of OVISE cells with human PBMCs (cell index vs dose), IC50 [1]: 192 nM

binding result [2]: no binding
B4: DB-S7-7 anti-Siglec 7 antibody (antibody, V domains shown)
VH: QVQLVESGGGVVQPGRSLRLSCAASGFTFRTDAMHWVRQAPGKGLEWVAVIWYDGSIKYHADSVKGRFTISRDNSKNTLYLEMNSLRAEDTAVYYCARDRSNSLDHWGQGILVSVSS
VL: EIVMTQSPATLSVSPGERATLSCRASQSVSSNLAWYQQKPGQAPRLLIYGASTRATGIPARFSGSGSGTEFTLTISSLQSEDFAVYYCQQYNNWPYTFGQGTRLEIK
notes: Raised in H2L2 mice (hybridoma clone in the first screens), then expressed as human IgG1 HC and LC from pVax1 in Expi293F cells or in mice (DMAb); also called DB7.7; DB-S7-7 DMAb

Source: patent US20250223369A1 (WISTAR INSTITUTE OF ANATOMY AND BIOLOGY, published 2025)
